From article PMC8144621, “A two-hybrid system reveals previously uncharacterized protein–protein interactions within the Helicobacter pylori NIF iron–sulfur maturation system” (Scientific Reports, 2021)

Legend:
[1] = target: the molecule itself; assay: cross-linking; purified proteins (15 µM) incubated alone or together for 60 min at 25 °C with 10 mM dimethyl suberimidate (DMS), no ATP; SDS 4-20% gradient PAGE, Coomassie
[2] = target: T1, ApbC-(His)6, purified recombinant (Helicobacter pylori strain 26695, UniProt O24999 1-368); assay: as above; conditions: both partners purified
T1 construct: H. pylori strain 26695 ApbC/HP0207, whole native hp0207 (apbC) ORF without its stop codon, cloned NdeI-XhoI in pET21b (pET-ApbC); predicted mass with tag 41.1 kDa; The name ApbC-(His)6 and the cloning without stop codon in pET21b put the tag at the C-terminus; the methods of the cross-linking call the protein 'native ApbC'; also called hexahistidine tagged-ApbC^WT; source: E. coli BL21 RIL, …
T1 sequence (looked up): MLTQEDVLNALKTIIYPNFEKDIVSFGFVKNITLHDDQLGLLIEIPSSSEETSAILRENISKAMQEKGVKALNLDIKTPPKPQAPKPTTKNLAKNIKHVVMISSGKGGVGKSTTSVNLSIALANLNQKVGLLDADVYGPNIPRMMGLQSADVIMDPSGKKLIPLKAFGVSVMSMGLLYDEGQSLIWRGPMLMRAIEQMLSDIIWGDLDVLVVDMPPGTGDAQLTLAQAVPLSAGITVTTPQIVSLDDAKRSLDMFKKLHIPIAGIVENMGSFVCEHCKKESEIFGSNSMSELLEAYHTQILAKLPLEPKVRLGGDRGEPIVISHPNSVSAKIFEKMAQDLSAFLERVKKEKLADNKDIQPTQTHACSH

B1: Nfu (HP1492), purified recombinant (natural protein, Helicobacter pylori, UniProt O26025 1-89, looked up)
chain: MIEFSDEDLQKPVRIVIEKIRPYLLKDGGNIEVLGVKSMKIYVALEGACKTCSSSKITLKNVIERQLKMDIHPNLEVVCLENAKEFDKL
notes: H. pylori Nfu/HP1492; also called recombinant Nfu; HpNfu
Q: For B1, which “stoichiometry N” value [1] is on record?
A: Its value is 2.

Q: Does B1 bind [2]?
A: Result: binds
